Data published in PMC3761233.

Assays:
[1] = target: endogenous porcine aminopeptidase N on ST cells and IPI-21 cells (porcine (endogenous in ST and IPI-21 cells)) (UniProt P15145); assay: flow cytometry on cells
[2] = target: porcine aminopeptidase N, expressed from a plasmid on BHK-21 or HEK 293T cells (porcine) (UniProt P15145); assay: flow cytometry on cells

Substance: soluble TGEV spike protein (S1 subunit fused to the human IgG Fc portion) (from UniProt P07946 29-1447) (Fc fusion)
- percent of cells bound (ST cells, after neuraminidase) (% of the cells) [1]: > 60
- percent of cells bound (ST cells, without neuraminidase) (% of the cells) [1]: 50
- percent of cells bound (BHK-21 cells expressing APN, after neuraminidase) (% of the cells) [2]: > 60
